Measurements: patent publication US7662583B2, “Bioreactor containing cells expressing glycosyltransferase nucleic acids isolatable from Arabidopsis” (The University of York, priority 2003, dated 2010)

Assay: UGT enzyme reaction with quercetin (recombinant UGTs, HPLC)
Assay type: biochemical, Arabidopsis
Settings: 0.5 mM quercetin, 5 mM UDP-glucose, 30° C.; for Specific activity (nkat/mg protein) 3-O-glc: quercetin glucosylated at 3-OH; for Specific activity (nkat/mg protein) 3′-O-glc: quercetin glucosylated at 3′-OH; for Specific activity (nkat/mg protein) 4′-O-glc: quercetin glucosylated at 4′-OH; for Specific activity (nkat/mg protein) 7-O-glc: quercetin glucosylated at 7-OH
Procedure: The assay mix (200 μl) contained 2 μg of recombinant protein, 100 mM Tris-HCl, pH 7.0, 5 mM UDP-glucose 1.4 mM 2-mercaptoethanol, and 0.5 mM of quercetin. The reaction was carried out at 30° C. for 1 h, and was quick-frozen and stored at −20° C. prior to the reverse-phase HPLC analysis
Reverse-phase HPLC (SpectraSYSTEM HPLC systems and UV6000LP Photodiode Array Detector, ThermoQuest) analysis was carried using a Columbus 5μ C18 column (250×4.60 mm, PHENOMENEX). Quercetin glucosides were separated from the aglycone by a linear gradient of 10-75% acetonitrile in H2O (all solution contained 0.1% trifluoroacetic acid) at 1 ml/mm over 20 mm and monitored at 370 nm. Cytokinin glucosides were separated from their aglycone by a liner gradient of 10-100% methanol in H2O (for N6-isopentenyladenine (iP), N6-benzyladenine and kinetin) or 10-60% methanol in H2O (for trans-zeatin and dihydrozeatin) at 1 ml/min over 20 mm. All solution contained 0.25% acetic acid and 0.04% triethylamine, trifluoroacetic acid. The separation was monitored at 206 nm and 252 nm. The identity of the products was confirmed by comparison with authentic gluco sides.
The activity of Arabidopsis recombinant UGTs towards quercetin was determined using the platform developed previously^15.

B1: UGT76E11: Arabidopsis recombinant glycosyltransferase (protein, UniProt Q9SNB1 1-451, looked up)
UDP-glycosyltransferase 76E11: MEEKPAGRRVVLVAVPAQGHISPIMQLAKTLHLKGFSITIAQTKFNYFSPSDDFTDFQFVTIPESLPESDFEDLGPIEFLHKLNKECQVSFKDCLGQLLLQQGNEIACVVYDEFMYFAEAAAKEFKLPNVIFSTTSATAFVCRSAFDKLYANSILTPLKEPKGQQNELVPEFHPLRCKDFPVSHWASLESMMELYRNTVDKRTASSVIINTASCLESSSLSRLQQQLQIPVYPIGPLHLVASASTSLLEENKSCIEWLNKQKKNSVIFVSLGSLALMEINEVIETALGLDSSKQQFLWVIRPGSVRGSEWIENLPKEFSKIISGRGYIVKWAPQKEVLSHPAVGGFWSHCGWNSTLESIGEGVPMICKPFSSDQMVNARYLECVWKIGIQVEGDLDRGAVERAVRRLMVEEEGEGMRKRAISLKEQLRASVISGGSSHNSLEEFVHYMRTL
  Specific activity (nkat/mg protein) 3-O-glc: 0.08 nkat/mg protein
  Specific activity (nkat/mg protein) 3′-O-glc: — (Activity lower than 0.02 nkat/mg protein has been considered as trace activity and is not shown in the Table.)
  Specific activity (nkat/mg protein) 4′-O-glc: — (Activity lower than 0.02 nkat/mg protein has been considered as trace activity and is not shown in the Table.)
  Specific activity (nkat/mg protein) 7-O-glc: 0.12 nkat/mg protein

B2: UGT71C4: Arabidopsis recombinant glycosyltransferase, FIG. 3 (protein, listed as Arabidopsis thaliana)
chain: MVKETELIFIPVPSTGHILVHIEFAKRLINLDHRIHTITILNLSSPSSPHASVFARSLIASQPKIRLHDLPPIQDPPPFDLYQRAPEAYIVKLIKKNTPLIKDAVSSIVASRRGGSDSVQVAGLVLDLFCNSLVKDVGNELNLPSYIYLTCNARYLGMMKYIPDRHRKIASEFDLSSGDEELPVPGFINAIPTKFMPPGLFNKEAYEAYVELAPRFADAKGILVNSFTELEPHPFDYFSHLEKFPPVYPVGPILSLKDRASPNEEAVDRDQIVGWLDDQPESSVVFLCFGSRGSVDEPQVKEIARALELVGCRFLWSIRTSGDVETNPNDVLPEGFMGRVAGRGLVCGWAPQVEVLAHKAIGGFVSHCGWNSTLESLWFGVPVATWPMYAEQQLNAFTLVKELGLAVDLRMDYVSSRGGLVTCDEIARAVRSLMDGGDEKRKKVKEMADAARKALMDGGSSSLATARFIAELFEDGSSC
  Specific activity (nkat/mg protein) 3-O-glc: 1.33 nkat/mg protein
  Specific activity (nkat/mg protein) 3′-O-glc: — (Activity lower than 0.02 nkat/mg protein has been considered as trace activity and is not shown in the Table.)
  Specific activity (nkat/mg protein) 4′-O-glc: — (Activity lower than 0.02 nkat/mg protein has been considered as trace activity and is not shown in the Table.)
  Specific activity (nkat/mg protein) 7-O-glc: 0.63 nkat/mg protein

B3: UGT73B1: Arabidopsis recombinant glycosyltransferase (protein, UniProt Q8VZE9 1-488, looked up)
UDP-glycosyltransferase 73B1: MGTPVEVSKLHFLLFPFMAHGHMIPTLDMAKLFATKGAKSTILTTPLNAKLFFEKPIKSFNQDNPGLEDITIQILNFPCTELGLPDGCENTDFIFSTPDLNVGDLSQKFLLAMKYFEEPLEELLVTMRPDCLVGNMFFPWSTKVAEKFGVPRLVFHGTGYFSLCASHCIRLPKNVATSSEPFVIPDLPGDILITEEQVMETEEESVMGRFMKAIRDSERDSFGVLVNSFYELEQAYSDYFKSFVAKRAWHIGPLSLGNRKFEEKAERGKKASIDEHECLKWLDSKKCDSVIYMAFGTMSSFKNEQLIEIAAGLDMSGHDFVWVVNRKGSQVEKEDWLPEGFEEKTKGKGLIIRGWAPQVLILEHKAIGGFLTHCGWNSLLEGVAAGLPMVTWPVGAEQFYNEKLVTQVLKTGVSVGVKKMMQVVGDFISREKVEGAVREVMVGEERRKRAKELAEMAKNAVKEGGSSDLEVDRLMEELTLVKLQKEKV
  Specific activity (nkat/mg protein) 3-O-glc: 0.32 nkat/mg protein
  Specific activity (nkat/mg protein) 3′-O-glc: — (Activity lower than 0.02 nkat/mg protein has been considered as trace activity and is not shown in the Table.)
  Specific activity (nkat/mg protein) 4′-O-glc: — (Activity lower than 0.02 nkat/mg protein has been considered as trace activity and is not shown in the Table.)
  Specific activity (nkat/mg protein) 7-O-glc: 0.14 nkat/mg protein

B4: UGT73B4: Arabidopsis recombinant glycosyltransferase (protein, UniProt Q7Y232 1-484, looked up)
UDP-glycosyltransferase 73B4: MNREQIHILFFPFMAHGHMIPLLDMAKLFARRGAKSTLLTTPINAKILEKPIEAFKVQNPDLEIGIKILNFPCVELGLPEGCENRDFINSYQKSDSFDLFLKFLFSTKYMKQQLESFIETTKPSALVADMFFPWATESAEKIGVPRLVFHGTSSFALCCSYNMRIHKPHKKVASSSTPFVIPGLPGDIVITEDQANVTNEETPFGKFWKEVRESETSSFGVLVNSFYELESSYADFYRSFVAKKAWHIGPLSLSNRGIAEKAGRGKKANIDEQECLKWLDSKTPGSVVYLSFGSGTGLPNEQLLEIAFGLEGSGQNFIWVVSKNENQVGTGENEDWLPKGFEERNKGKGLIIRGWAPQVLILDHKAIGGFVTHCGWNSTLEGIAAGLPMVTWPMGAEQFYNEKLLTKVLRIGVNVGATELVKKGKLISRAQVEKAVREVIGGEKAEERRLRAKELGEMAKAAVEEGGSSYNDVNKFMEELNGRK
  Specific activity (nkat/mg protein) 3-O-glc: 12.14 nkat/mg protein
  Specific activity (nkat/mg protein) 3′-O-glc: — (Activity lower than 0.02 nkat/mg protein has been considered as trace activity and is not shown in the Table.)
  Specific activity (nkat/mg protein) 4′-O-glc: — (Activity lower than 0.02 nkat/mg protein has been considered as trace activity and is not shown in the Table.)
  Specific activity (nkat/mg protein) 7-O-glc: 0.18 nkat/mg protein

B5: UGT76E2: Arabidopsis recombinant glycosyltransferase, FIG. 8 (protein, listed as Arabidopsis thaliana)
chain: MEEKQVKETRIVLVPVPAQGHVTPMMQLGKALHSKGFSITVVLTQSNRVSSSKDFSDFHFLTIPGSLTESDLQNLGPQKFVLKLNQICEASFKQCIGQLLHEQCNNDIACVVYDEYMYFSHAAVKEFQLPSVVFSTTSATAFVCRSVLSRVNAESFLIDMKDPETQDKVFPGLHPLRYKDLPTSVFGPIESTLKVYSETVNTRTASAVIINSASCLESSSLARLQQQLQVPVYPIGPLHITASAPSSLLEEDRSCVEWLNKQKSNSVIYISLGSLALMDTKDMLEMAWGLSNSNQPFLWVVRPGSIPGSEWTESLPEEFNRLVSERGYIVKWAPQMEVLRHPAVGGFWSHCGWNSTVESIGEGVPMICRPFTGDQKVNARYLERVWRIGVQLEGDLDKETVERAVEWLLVDEEGAEMRKRAIDLKEKIETSVRSGGSSCSSLDDFVNSM
  Specific activity (nkat/mg protein) 3-O-glc: 0.17 nkat/mg protein
  Specific activity (nkat/mg protein) 3′-O-glc: — (Activity lower than 0.02 nkat/mg protein has been considered as trace activity and is not shown in the Table.)
  Specific activity (nkat/mg protein) 4′-O-glc: — (Activity lower than 0.02 nkat/mg protein has been considered as trace activity and is not shown in the Table.)
  Specific activity (nkat/mg protein) 7-O-glc: 0.21 nkat/mg protein

B6: UGT76D1: Arabidopsis recombinant glycosyltransferase, FIG. 7 (protein, listed as Arabidopsis thaliana)
chain: MAEIRQRRVLMVPAPFQGHLPSMMNLASYLSSQGFSITIVRNEFNFKDISHNFPGIKFFTIKDGLSESDVKSLGLLEFVLELNSVCEPLLKEFLTNHDDVVDFIIYDEFVYFPRRVAEDMNLPKMVFSPSSAATSISRCVLMENQSNGLLPPQDARSQLEETVPEFHPFRFKDLPFTAYGSMERLMILYENVSNRASSSGIIHNSSDCLENSFITTAQEKWGVPVYPVGPLHMTNSAMSCPSLFEEERNCLEWLEKQETSSVIYISMGSLAMTQDIEAVEMAMGFVQSNQPFLWVIRPGSINGQESLDFLPEQFNQTVTDGRGFVVKWAPQKEVLRHRAVGGFWNHGGWNSCLESISSGVPMICRPYSGDQRVNTRLMSHVWQTAYEIEGELERGAVEMAVRRLIVDQEGQEMRMRATILKEEVEASVTTEGSSHNSLNNLVHAIMMQIDEQ
  Specific activity (nkat/mg protein) 3-O-glc: — (Activity lower than 0.02 nkat/mg protein has been considered as trace activity and is not shown in the Table.)
  Specific activity (nkat/mg protein) 3′-O-glc: — (Activity lower than 0.02 nkat/mg protein has been considered as trace activity and is not shown in the Table.)
  Specific activity (nkat/mg protein) 4′-O-glc: — (Activity lower than 0.02 nkat/mg protein has been considered as trace activity and is not shown in the Table.)
  Specific activity (nkat/mg protein) 7-O-glc: 0.24 nkat/mg protein

B7: UGT71C3: Arabidopsis recombinant glycosyltransferase, FIG. 2 (protein, listed as Arabidopsis thaliana)
chain: MKAEAEIIFVTYPSPGHLLVSIEFAKSLIKRDDRIHTITILYWALPLAPQAHLFAKSLVASQPRIRLLALPDVQNPPPLELFFKAPEAYILESTKKTVPLVRDALSTLVSSRKESGSVRVVGLVIDFFCVPMIEVANELNLPSYIFLTCNAGFLSMMKYLPERHRITTSELDLSSGNVEHPIPGYVCSVPTKVLPPGLFVRESYEAWVEIAEKFPGAKGILVNSVTCLEQNAFDYFARLDENYPPVYPVGPVLSLKDRPSPNLDASDRDRIMRWLEDQPESSIVYICFGSLGIIGKLQIEEIAEALELTGHRFLWSIRTNPTEKASPYDLLPEGFLDRTASKGLVCDWAPQVEVLAHKALGGFVSHCGWNSVLESLWFGVPIATWPMYAEQQLNAFSMVKELGLAVELRLDYVSAYGEIVKAEEIAGAIRSLMDGEDTPRKRVKEMAEAARNALMDGGSSFVAVKRFLDELIGGDV
  Specific activity (nkat/mg protein) 3-O-glc: 0.11 nkat/mg protein
  Specific activity (nkat/mg protein) 3′-O-glc: — (Activity lower than 0.02 nkat/mg protein has been considered as trace activity and is not shown in the Table.)
  Specific activity (nkat/mg protein) 4′-O-glc: — (Activity lower than 0.02 nkat/mg protein has been considered as trace activity and is not shown in the Table.)
  Specific activity (nkat/mg protein) 7-O-glc: — (Activity lower than 0.02 nkat/mg protein has been considered as trace activity and is not shown in the Table.)
